Here are results for two molecules from patent publication US20030055006A1, “Combinations and compositions which interfere with VEGF/VEGF and angiopoietin/tie receptor function and their use” (Schering Aktiengesellschaft, priority 2000, published 2003).

Test [1] deals with Tumors derived from A375v/pCEP cells. Put plainly: Tumor growth in A375v xenograft, Example 6 (VEGF receptor kinase inhibitor and/or L19 scFv-tTF). Format: in vivo, nude mice. To be noted: kinase inhibitor 50 mg/kg daily oral; L19 scFv-tTF single i.v. dose of 20 μg; untreated control approx. 1000 mm^3. The protocol:
Tumors derived from A375v/pCEP cells were induced in nude mice as described in example 1. Animals receiving compound I were treated for up to 28 days with daily oral doses of 50 mg/kg of the VEGF receptor tyrosine kinase inhibitor (4-Chlorophenyl)[4-(4-pyridylmethyl)-phthalazin-1-yl]ammonium hydrogen succinate (Wood et al., Cancer Res. 60, 2178-2189, 2000). Compound II consists of L19 scFv-tTF fusion protein as described in example 5. When tumors reached a size of approx. 200 mm^3 animals receiving compound II were treated with a single intravenous dose of 20 μg of L19 scFv-tTF in 200 μl saline. Various modes of treatment are described in Table 6. Animals were sacrificed for ethical reasons when tumors of -group 1 exceeded a volume of approx. 1000 mm^3. Tumor growth was determined by caliper measurement of the largest diameter and its perpendicular.

The test system of test [2] is A375v human melanoma xenograft (A375v/pCEP, A375v/sTie2). Put plainly: Tumor growth in A375v human melanoma xenograft model, Example 1 (VEGF receptor kinase inhibitor and/or sTie2). Type of test: in vivo, Swiss nu/nu mice. The note with it: s.c. A375v xenograft; kinase inhibitor 50 mg/kg daily oral; sTie2 expressed by tumor cells; untreated control 24 days. The protocol: Human melanoma cell line A375v was stably transfected to overexpress the extracellular ligand-neutralizing domain of human Tie2 receptor tyrosine kinase (sTie2; compound II) (Siemeister et al., Cancer Res. 59, 3185-3191, 1999). For control, A375v cells were stably transfected with the empty expression vector (A375v/pCEP). Swiss nu/nu mice were s.c. injected with 1×10^6 transfected A375v/sTie2 or A375v/pCEP tumor cells, respectively. Animals receiving compound I were treated for up to […] with daily oral doses of 50 mg/kg of the VEGF receptor tyrosine kinase inhibitor (4-Chlorophenyl)[4-(4-pyridylmethyl)-phthalazin-1-yl]ammonium hydrogen succinate (Wood et al., Cancer Res. 60, 2178-2189, 2000). Various modes of treatment are described in Table 1. Tumor growth was determined by caliper measurement of the largest diameter and its perpendicular.
On the technique in general: In xenograft studies the graft and the host belong to different species.

The test system of test [3] is Tumors derived from A375v/pCEP cells. Put plainly: Tumor growth in A375v xenograft, Example 4 (VEGF receptor kinase inhibitor and/or scFv-tTF conjugate). To be noted: kinase inhibitor 50 mg/kg daily oral; scFv-tTF conjugate 20 μg i.v. on day 0 and day 4; untreated control approx. 1000 mm^3. Type of test: in vivo, nude mice. The protocol:
(§1) Tumors derived from A375v/pCEP cells were induced in nude mice as described in example 1. Animals receiving compound I were treated for up to 28 days with daily oral doses of 50 mg/kg of the VEGF receptor tyrosine kinase inhibitor (4-Chlorophenyl)[4-(4-pyridylmethyl)-phthalazin-1-yl]ammonium hydrogen succinate (Wood et al., Cancer Res. 60, 2178-2189, 2000). Compound II consists of a single chain antibody (scFv) specifically recognizing the human VEGF-A/VEGF receptor I complex (WO 99/19361) which was expressed in E. coli and conjugated to coagulation-inducing recombinant human truncated tissue factor (tTF) by methods descibed by Ran et al. (Cancer Res. 58, 46464653, 1998). When tumors reached a size of approx. 200 mm^3 animals receiving compound II were treated on day 0 and on day 4 with intravenous doses of 20 μg of the scFv-tTF conjugate. Various modes of treatment are described in Table 4. Animals were sacrificed for ethical reasons when tumors of group 1 exceeded a volume of approx. 1000 mm^3. Tumor growth was determined by caliper measurement of the largest diameter and its perpendicular.

The subject of test [4] is Tumors derived from A375v/sTie2 cells and from A375v/pCEP cells. Put plainly: Tumor growth in A375v xenograft, Example 3 (scFv-tTF conjugate and/or sTie2). Format: in vivo, nude mice. To be noted: sTie2 expressed by tumor cells; untreated control approx. 1000 mm^3. Here is the method: as §1, with “derived from A375v/sTie2 cells and” for “derived”, “A” for “Animals receiving compound I were treated for up to 28 days with daily oral doses of 50 mg/kg of the VEGF receptor tyrosine kinase inhibitor (4-Chlorophenyl)[4-(4-pyridylmethyl)-phthalazin-1-yl]ammonium hydrogen succinate (Wood et al., Cancer Res. 60, 2178-2189, 2000). Compound II consists of a”, “99/19361)” for “99/19361) which”, “4646-4653,” for “46464653,”, “I” for “II”, “3.” for “4.”

For test [5] the test system is unchanged. Put plainly: Tumor growth in A375v xenograft, Example 5 (L19 scFv-tTF and/or sTie2). To be noted: sTie2 expressed by tumor cells; untreated control approx. 1000 mm^3. Format: in vivo, nude mice. The source says: Tumors derived from A375v/sTie2 cells and from A375v/pCEP cells were induced in nude mice as described in example 1. A fusion protein (L19 scFv-tTF) consisting of L19 single chain antibody specifically recognizing the oncofoetal ED-B domain of fibronectin and the extracellular domain of tissue factor was expressed in E. coli as described by Nilsson et al. (Nat. Med., in press). Further, L19 scFv-tTF data have been represented by D. Neri and F. Nilsson (Meeting “Advances in the application of monoclonal antibodies in clinical oncology”, Samos, Greece, 31. May-2. June 2000). When tumors reached a size of approx. 200 mm^3 animals receiving compound I were treated with a single intravenous dose of 20 μg of L19 scFv-tTF in 200 μl saline. Various modes of treatment are described in Table 5. Animals were sacrificed for ethical reasons when tumors of group 1 exceeded a volume of approx. 1000 mm^3. Tumor growth was determined by caliper measurement of the largest diameter and its perpendicular.

Test [6] shares this test system. Put plainly: Tumor growth in A375v xenograft, Example 2 (mAb 4301-42-35 and/or sTie2). Format: in vivo, nude mice. To be noted: sTie2 expressed by tumor cells; untreated control approx. 1000 mm^3. Here is the method: Tumors derived from A375v/sTie2 cells and from A375v/pCEP cells were induced in nude mice as described in example 1. Animals receiving compound I were treated twice weekly over a period of time of 4 weeks with intraperitoneal doses of 200 μg of the VEGF-A-neutralizing monoclonal antibody (mAb) 4301-42-35 (Schlaeppi et al., J. Cancer Res. Clin. Oncol. 125, 336-342, 1999). Various modes of treatment are descibed in Table 2. Animals were sacrificed for ethical reasons when tumors of group 1 exceeded a volume of approx. 1000 mm^3. Tumor growth was determined by caliper measurement of the largest diameter and its perpendicular.

For the molecule `Clc1ccc(Nc2nnc(Cc3ccncc3)c3ccccc23)cc1.O=C(O)CCC(=O)O` [(4-Chlorophenyl)[4-(4-pyridylmethyl)-phthalazin-1-yl]ammonium hydrogen succinate], the “tumor volume within 28 days” value in test [1] and in test [3] was “approx. 550 mm^3” each time. In addition, the “time for tumors to grow to a size of approx. 250 mm^2 (mean area)” value in test [2] worked out at 31 days.

B1: sTie2: extracellular ligand-neutralizing domain of human Tie2 receptor tyrosine kinase, overexpressed by transfected A375v cells (protein, UniProt Q02763 23-748, looked up)
extracellular domain: AMDLILINSLPLVSDAETSLTCIASGWRPHEPITIGRDFEALMNQHQDPLEVTQDVTREWAKKVVWKREKASKINGAYFCEGRVRGEAIRIRTMKMRQQASFLPATLTMTVDKGDNVNISFKKVLIKEEDAVIYKNGSFIHSVPRHEVPDILEVHLPHAQPQDAGVYSARYIGGNLFTSAFTRLIVRRCEAQKWGPECNHLCTACMNNGVCHEDTGECICPPGFMGRTCEKACELHTFGRTCKERCSGQEGCKSYVFCLPDPYGCSCATGWKGLQCNEACHPGFYGPDCKLRCSCNNGEMCDRFQGCLCSPGWQGLQCEREGIQRMTPKIVDLPDHIEVNSGKFNPICKASGWPLPTNEEMTLVKPDGTVLHPKDFNHTDHFSVAIFTIHRILPPDSGVWVCSVNTVAGMVEKPFNISVKVLPKPLNAPNVIDTGHNFAVINISSEPYFGDGPIKSKKLLYKPVNHYEAWQHIQVTNEIVTLNYLEPRTEYELCVQLVRRGEGGEGHPGPVRRFTTASIGLPPPRGLNLLPKSQTTLNLTWQPIFPSSEDDFYVEVERRSVQKSDQQNIKVPGNLTSVLLNNLHPREQYVVRARVNTKAQGEWSEDLTAWTLSDILPPQPENIKISNITHSSAVISWTILDGYSISSITIRYKVQGKNEDQHVDVKIKNATITQYQLKGLEPETAYQVDIFAENNIGSSNPAFSHELVTLPESQAPADLGGGKMLL
modifications: extracellular domain
notes: extracellular ligand-neutralizing domain of human Tie2 receptor tyrosine kinase, overexpressed by transfected A375v cells
Take B1: the “tumor volume within 28 day” value in test [4], in test [5] and in test [6] was “approx. 600 mm^2” each time. Also, the “time for tumors to grow to a size of approx. 250 mm^2 (mean area)” value in test [2] was found to be 31 days.
